Data: US20250270315A1
Like-named read-outs stand apart in the source and are kept apart here.

What was measured:
[1] = molecular target: human SIRPα v2 expressed on cells (CHOK1 stable line KYinno KC-1720) (human) (UniProt P78324); test: FACS, CHOK1-hSIRPα v2 cells
[2] = molecular target: Human SIRPα v2 (antigen of the Octet and Biacore affinity measurements) (human) (UniProt P78324); test: SPR (Biacore), 1:1 binding model
[3] = molecular target: human SIRPα v2 expressed on cells (CHOK1 stable line KYinno KC-1720) (human) (UniProt P78324); test: FACS, CHOK1-hSIRPα v2 cells; remark: listed apart in the source
[4] = molecular target: cyno SIRPα stably expressed on CHOK1 cells (cyno); test: FACS, CHOK1-Cyno SIRPα cells

EC50 [1] [nM]	TOP MFI [1] [MFI]	Kd [2] [nM]	koff [2] [s⁻¹]	kon [2] [M⁻¹ s⁻¹]	EC50 [3] [nM]	TOP MFI [3] [MFI]	EC50 [4] [nM]	TOP MFI [4] [MFI]	Binder
0.87	46400	3.39	0.0056	1.65e+06	–	–	–	–	hu025.021 (antibody, V domains shown) VH: EVQLVQSGAEVKKPGATVKISCKVSGFNIKDYYMHWVQQAPGKGLEWIGRIDPEDAETKYAPKFQGRVTITADTSTNTAYMELSSLRSEDTAVYYCDRGLAYWGQGTLVTVSS VL: EIVLTQSPATLSLSPGERATLSCSASSSVSSSYLYWYQQKPGQAPKLWIYSTSNLASGIPARFSGSGSGTDYTLTISSLEPEDFAVYYCHQWSSYPYTFGQGTKLEIK
–	–	–	–	–	5.47	53300	–	–	005c (antibody, V domains shown) VH: EVKLVESGGGLVQPGGSLSLSCAASGFTFTDYYMSWVRQPPGKALEWLGFIKNEANGYTTESSASVKGRFTISRDNSQSILYLQMNALRAEDSATYYCARYDYYGSNYNWYFDAWGTGTTVTVSS VL: DIVMTQSQKFMSPSVGDRVSITCKASQNVRTAVAWYQQKPGQSPKVLIHLASKRHTGVPDRFTGSGSGTDFTLTISNVQSEDLADYFCLQHWIHPLTFGAGTKLELK
–	–	–	–	–	3.31	46700	2.64	32300	071c (antibody, V domains shown) VH: QIQLVQSGPELKKPGETVKISCKASGYTFTTYGMSWVKQAPGKGLKWMVWINTYSGVPTYADDFQGRFAFSLETSASTSYLQINNLRNEDTATYFCARDPHYYGTSPAWFAYWGQGTLVTVSA VL: DIVMTQSQKFMSTTIGDRVIITCKASQIVGIAVAWYQQKPGQSPKLLIYSASNRFTGVPDRFTGSGSGTDFTLTISNMQSEDLADYFCQQYSTYPFTFGSGTKLEIK
–	–	–	–	–	2.12	47300	1.76	30700	073c (antibody, V domains shown) VH: QIQLVQSGPELKKPGETVKISCKASGYTFTTYGMSWVKQAPGKGLKWMVWINTYSGVPTYADDFKGRFAFSLETSASTSYLQINNLKNEDTATYFCARDPHYYGSSPAWFVYWGQGTLVTVSA VL: DIVMTQSQKFMSTTIGDRVSITCEASQIVGIAVAWYQQKPGQSPKLLIYSASNRYTGVPDRFTGSGSGTDFTLTISNMQSEDLANYFCQQYSAYPFTFGSGTKLEVK

The next lines start with the binder.

Binder	EC50 [1] [nM]	TOP MFI [1] [MFI]	Kd [2] [nM]	koff [2] [s⁻¹]	kon [2] [M⁻¹ s⁻¹]	EC50 [3] [nM]	TOP MFI [3] [MFI]	EC50 [4] [nM]	TOP MFI [4] [MFI]
hu025.033 (antibody, V domains shown) VH: EVQLVQSGAEVKKPGATVKISCKVSGFNIKDYYMHWVQQAPGKGLEWIGRIDPEDAETKYAPKFQGRVTITADTSTDTAYMELSSLRSEDTAVYYCDRGLAYWGQGTLVTVSS VL: EIVLTQSPATLSLSPGERATLSCSASSSVSSSYLYWYQQKPGQAPKLWIYSTSNLASGIPARFSGSGSGTDYTLTISSLEPEDFAVYYCHQWSSYPYTFGQGTKLEIK	0.62	39800	–	–	–	–	–	–	–
hu025.059 (antibody, V domains shown) VH: EVQLVQSGAEVKKPGATVKISCKASGFNIKDYYMHWVQQAPGKGLEWIGRIDPEDAETKYAPKFQGRVTITADTSTNTAYMELSSLRSEDTAVYYCDRGLAYWGQGTLVTVSS VL: EIVLTQSPATLSLSPGERATLSCSASSSVSSSYLYWYQQKPGQAPKLWIYSTSNLASGIPARFSGSGSGTDYTLTISSLEPEDFAVYYCHQWSSYPYTFGQGTKLEIK	0.75	47300	2.76	0.00392	1.42e+06	–	–	–	–
059c (antibody, V domains shown) VH: QVQLQQSGPELVKPGASVKMSCKASGYTFSEYVLSWVKQRTGQGLEWIGEIYPGTITTYYNEKFKGKATLTADKSSNTAYIQLTSLTSEDSAVYFCGRFYDYDGGWFAYWGQGTLLTVSA VL: ENVLTQSPEKMAVSLGQKVTMTCSASSSVSSSDLHWYQQKSGASPKPLIHGTSNLASGVPARFSGSGSGTSYSLTISSVEAEDAATYYCQQWSGYPWTFGGGTNLEIK	–	–	–	–	–	12	19600	17.2	17400
